Assay results: publication PMC11208920, “The binding of LARP6 and DNAAF6 in biomolecular condensates influences ciliogenesis of multiciliated cells”

Legend:
[1] = target: T1, rLARP6 (recombinant human LARP6, LAM+RRM only) (Homo sapiens, UniProt Q9BRS8 73-303); experiment: EMSA; 5 mM Mg2+; monomer and dimer complexes; 10 mM Tris pH 7.5, 100 mM KCl, 5 mM MgCl2, room temperature, 10 min; 6% native gel, SYBR Gold; details: protein: recombinant
T1 sequence: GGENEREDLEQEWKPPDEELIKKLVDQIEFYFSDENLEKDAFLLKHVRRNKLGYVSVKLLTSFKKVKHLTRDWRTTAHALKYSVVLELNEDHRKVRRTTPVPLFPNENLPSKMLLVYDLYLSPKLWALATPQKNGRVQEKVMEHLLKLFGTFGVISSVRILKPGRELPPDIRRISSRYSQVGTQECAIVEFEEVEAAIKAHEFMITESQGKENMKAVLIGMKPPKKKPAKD

[2] = target: T1, rLARP6 (recombinant human LARP6, …); experiment: EMSA; 5 mM Mg2+; 10 mM Tris pH 7.5, 100 mM KCl, 5 mM MgCl2, room temperature, 10 min; 6% native gel, SYBR Gold; details: protein: recombinant; label: SYBR Gold stain

B1: xTUBA1CL RNA probe (ssRNA)
RNA: GAGGGAGAAGAAUAUUAAAUAAUAAAUCAAAAGCUUCACAAUAAUACCUGCAGAUUUUGUUUGAAAUAAUAAUUUUGAAUAAAUACGUUUUUAUCUUGUA
binding result ([1]; label: SYBR Gold stain (Results text says radiolabeled)): binds

B2: hCOL1A2 WT RNA (structured_RNA)
RNA: CCACAAAGAGUCUACAUGUCUAGGGUCUAGACAUGUUCAGCUUUGUGG
binding result ([1]; label: SYBR Gold stain): binds

B3: hCOL1A2 MUT RNA (structured_RNA)
RNA: CCACAAAGUGACUACAUGUCUAGGGUCUAGACAUGUUAUUCUUUGUGG
binding result [2]: no binding
